Patent US10077295B2, “Glycoproteins having lipid mobilizing properties and therapeutic uses thereof” (Aston University, priority 2010, dated 2018)

Experiments:
[1] = tested on: murine epididymal adipocytes; assay: Lipolytic assay (glycerol release) in murine adipocytes; format: cell-based, mouse
Description: Cell Culture and Purification of ZAG. Single-cell suspensions of white adipocytes were prepared from minced adipose deposits by incubation at 37° C. for 2 h in Krebs-Ringer biocarbonate buffer containing 1.5 mgml^−1 collagenase, and 4% bovine serum albumin under an atmosphere of 95% oxygen: 5% CO2 as previously described. For time-course studies adipocytes were suspended in DMEM containing 10% fetal calf serum at a concentration of 10^5 cells ml^−1 and maintained under an atmosphere of 10% CO2 in air at 37° C. Human 293 cells transfected with a plasmid containing human ZAG were seeded at a concentration of 10^5 cells ml^−1 in FreeStyle medium and maintained under an atmosphere of 5% CO2 in air at 37° C. Maximal protein levels (16 μgml^−1) were obtained after 14 days of culture. The media (200 ml) was then centrifuged at 700 g for 15 min to remove cells and concentrated into a volume of 1 ml of sterile PBS using an Amicon Ultra-15 centrifugal filter with a 10 kDa cut-off After measurement of the protein concentration of the sample (about 2 mg) it was added to 2 g DEAE cellulose suspended in 20 ml of 10 mM Tris, pH8.8 and stirred at 4° C. for 2 h. ZAG being negatively charged binds to the DEAE cellulose, which was sedimented by centrifugation (1500 g for 15 min), and eluted by stirring with 20 ml 10 mM Tris, pH8.8 containing 0.3M NaCl for 30 min at 4° C. The supernatant was washed and concentrated to a volume of 1 ml in sterile PBS using the Amicon centrifugal filter.
Lipolytic assay. Samples to be assayed were incubated with 10^5 to 2×10^5 adipocytes for 2 h in 1 ml Krebs-Ringer bicarbonate buffer, pH 7.2. The concentration of glycerol released was determined enzymatically by the method of Wieland (Wieland, O. Glycerol UV method. In Methods of Enzymatic Analysis (ed. Bergmeyer, H.U.) (Academic Press, London, UK, pp 1404-1409, 1974)). Control samples containing adipocytes alone were analysed to determine the spontaneous glycerol release. Activity was expressed as μmol glycerol released/10^5 adipocytes/2 h.

[2] = tested on: rat epididymal adipocytes; assay: Lipolytic activity in rat adipocytes; format: cell-based; details: concentrations between 233 and 700 nM
Description: Lipolytic Activity in Rat Adipocytes—White adipocytes were prepared from finely minced epididymal adipose tissue of male Wistar rats (400 g) using collagenase digestion, as described (Beck S A, et al. Production of lipolytic and proteolytic factors by a murine tumor-producing cachexia in the host. Cancer Res 47:5919-5923, 1987). Lipolytic activity was determined by incubating 10^5-2×10^5 adipocytes for 2 h in 1 ml Krebs-Ringer bicarbonate buffer, pH 7.2, and the extent of lipolysis was determined by measuring the glycerol released (Wieland O. Glycerol UV method. Methods of Enzymatic Analysis, edited by Bergmeyer H U. Academic Press, London, pp 1404-1409, 1974). Spontaneous glycerol release was measured by incubating adipocytes alone. Lipolytic activity was expressed as μmol glycerol released/10^5 adipocytes/2 h.

ob/ob mice [3] = assay: ob/ob mice treated with ZAG i.v. with or without propanolol; format: in vivo, mouse; details: ZAG alone
Description: Animals. […] Male mice (about 20 weeks of age) were grouped into three per cage and kept in an air conditioned room at 22±2° C., with ad libitum feeding of a rat and mouse breeding diet (Special Diet Services, Witham, UK) and tap water. Mice were administered ZAG (50 μg, i.v. in 100 μl PBS) or PBS daily with or without propanolol (40 mgkg^−1, po, daily) and body weight and food and water intake were determined, as well as urinary glucose excretion and body temperature, determined by the use of a rectal thermometer (RS Components, Northants, UK). A glucose tolerance test was performed on day 3. […] Blood samples were removed from the tail vein at 15, 30, 60 and 120 min after glucose administration and used for the measurements of glucose and insulin. At the end of the experiment the animals were terminated by cervical dislocation, tissues removed and rapidly frozen in liquid nitrogen, and maintained at −80° C.
To determine whether ZAG can increase insulin signalling the effect on Glut4 expression was determined.

[4] = tested on: WAT, BAT and gastrocnemius muscle of male Wistar rats; assay: Western blots of tissues from rats treated with ZAG; format: in vivo, rat
Description: Samples of epididymal WAT, BAT and gastrocnemius muscle excised from rats treated with ZAG or PBS for 5 days were homogenized in 0.25M sucrose, 1 mM HEPES, pH 7.0 and […], and then centrifuged for 10 min at 4,500 rpm. Samples of cytosolic protein (10 μg) were resolved on 12% sodium dodecylsulphate polyacrylamide gel electrophoresis and the proteins were then transferred onto 0.45 μm nitrocellulose membranes, which had been blocked with 5% Marvel in Tris-buffered saline, pH 7.5, at 4° C. overnight, and following four 15 min washes with 0.1% Tween in PBS, incubation with the secondary antibody was performed for 1 h at room temperature. Development was by ECL.

ob/ob mice [5] = assay: Body weight loss by route of administration of ZAG in ob/ob mice; format: in vivo, mouse; details: intraveneous, 50 ug/day

B1: ZAG: recombinant full length human zinc-α2-glycoprotein (SEQ ID NO: 1) secreted by transfected HEK293F cells; lipid mobilizing factor (protein, listed as Homo sapiens)
chain: QENQDGRYSLTYIYTGLSKHVEDVPAFQALGSLNDLQFFRYNSKDRKSQPMGLWRQVEGMEDWKEDSQLQKAREDMETLKDIVEYYNDSNGSHVLQGRFGCEIENNRSSGAFWKYYYDGKDYIEFNKEIPAWVPFDPAAQITKQKWEAEPVYVQRAKAYLEEECPATLRKYLKYSKNILDRQDPPSVVVTSHQAPGEKKKLKCLAYDFYPGKIDVHWTRAGQVQEPELRGDVLHNGNGTYQSWVVVAVPPQDTAPYSCHVQHSSLAQPLVVPWEAS
lipolytic effect in adipocytes from subcutaneous and visceral deposits ([1]; compared with epididymal adipocytes): considerably reduced | lipolysis in epididymal adipocytes ([1]; mouse adipocytes): stimulated lipolysis | effect of a single freezing and thawing cycle on lipolytic activity ([1]; murine epididymal adipocytes): destroyed | potency at inducing lipolysis compared with isoprenaline ([1]; on a molar basis): more potent at inducing lipolysis than isoprenaline on a molar basis | glycerol release from rat epididymal adipocytes [2]: dose-related increase in glycerol release | effect on liver lipids (ob/ob mice [3]): no effect on liver lipids | expression of ATGL and HSL in epididymal adipose tissue ([4]; rats): two-fold increase | expression of UCP-1 and -3 in BAT and WAT ([4]; rats): almost two-fold | phosphorylated forms of PKR and eIF2 α-subunit in gastrocnemius muscle ([4]; rats): significant reduction | expression of ZAG in skeletal muscle, WAT and BAT ([4]; rats treated for 10 days): significantly increased | % of i.v. loss over the same time (ob/ob mice [5]; 8 Days): 100% | % of i.v. loss over the same time (ob/ob mice [5]; 20 Days): 100% | Body weight loss (ob/ob mice [5]; 70 g ob/ob mice, 8 Days): −6.0%
